Target: HLA-A*02:01 (Homo sapiens, UniProt P04439, D140Y/D185E/D98H/E176V/E277Q/G131W/G231S/I119V/I121R/I166T/I218V/L300P/L318F/N151K/N90K/P208A/P217A/Q86G/Q94H/R138H/R169H/T345S)
Assay: MHC binding assay (UV-ligand exchange, β2m ELISA, peptide exchange yield)
Settings: MHC class I binding score; binding to HLA-A*02:01 ranged by peptide exchange yield (UV-ligand exchange, β2m ELISA)
Method in brief: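 Binding is expressed as peptide exchange yield: stabilized MHC complexes were quantified by β2m ELISA, with a 450 nm TMB read-out on streptavidin-coated plates. Complexes came from UV-ligand exchange, where UV irradiation cleaves a photolabile peptide so the candidate peptide can load.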

Substance | Peptide exchange
96 (YIFTDNPAAV; listed as Homo sapiens) [compound 96] | ″+++″ (≧50% = +++)
159 (GLVGNPLPSV; listed as Homo sapiens) [compound 159] | ″++++″ (≧75% = ++++)
26 (ALLELAEEL; listed as Homo sapiens) [compound 26] | ″+++″ (≧50% = +++)
288 (NLINEINGV; listed as Homo sapiens) [compound 288] | ″+++″ (≧50% = +++)
333 (FLPDANSSV; listed as Homo sapiens) [compound 333] | ″++″ (≧20% = ++)
161 (ALLEGVNTV; listed as Homo sapiens) [compound 161] | ″+++″ (≧50% = +++)
214 (FLLDLDPLLL; listed as Homo sapiens) [compound 214] | ″+++″ (≧50% = +++)
329 (FLVTLNNVEV; listed as Homo sapiens) [compound 329] | ″++++″ (≧75% = ++++)
272 (ALGNTVPAV; listed as Homo sapiens) [compound 272] | ″+++″ (≧50% = +++)
189 (ALQRKLPYV; listed as Homo sapiens) [compound 189] | ″+++″ (≧50% = +++)
66 (FLDENIGGVAV; listed as Homo sapiens) [compound 66] | ″+++″ (≧50% = +++)
277 (LLPPLESLATV; listed as Homo sapiens) [compound 277] | ″++″ (≧20% = ++)
301 (FLVEDLVDSL; listed as Homo sapiens) [compound 301] | ″+++″ (≧50% = +++)
154 (ALDDGTPAL; listed as Homo sapiens) [compound 154] | ″++″ (≧20% = ++)
200 (LLFGSVQEV; listed as Homo sapiens) [compound 200] | ″+++″ (≧50% = +++)
340 (ALLSMTFPL; listed as Homo sapiens) [compound 340] | ″++++″ (≧75% = ++++)
1 (SLMEPPAVLLL; listed as Homo sapiens) [compound 1] | ″+++″ (≧50% = +++)
101 (ILVGGGALATV; listed as Homo sapiens) [compound 101] | ″+++″ (≧50% = +++)
194 (ALPLFVITV; listed as Homo sapiens) [compound 194] | ″+++″ (≧50% = +++)
20 (RMIEYFIDV; listed as Homo sapiens) [compound 20] | ″+++″ (≧50% = +++)
252 (LLIGTDVSL; listed as Homo sapiens) [compound 252] | ″+++″ (≧50% = +++)

Substance | Peptide exchange
129 (GLLDGGVDILL; listed as Homo sapiens) [compound 129] | ″+++″ (≧50% = +++)
217 (ALIHPVSTV; listed as Homo sapiens) [compound 217] | ″++″ (≧20% = ++)
163 (ALDEMGDLLQL; listed as Homo sapiens) [compound 163] | ″+++″ (≧50% = +++)
190 (FLSSLTETI; listed as Homo sapiens) [compound 190] | ″+++″ (≧50% = +++)
278 (QLLDVVLTI; listed as Homo sapiens) [compound 278] | ″++″ (≧20% = ++)
86 (NLIGKIENV; listed as Homo sapiens) [compound 86] | ″+++″ (≧50% = +++)
42 (VLLQKIVSA; listed as Homo sapiens) [compound 42] | ″+++″ (≧50% = +++)
77 (ILVEADGAWVV; listed as Homo sapiens) [compound 77] | ″++++″ (≧75% = ++++)
271 (LVYPLELYPA; listed as Homo sapiens) [compound 271] | ″+++″ (≧50% = +++)
78 (SLFSSLEPQIQPV; listed as Homo sapiens) [compound 78] | ″+++″ (≧50% = +++)
230 (ILVDWLVEV; listed as Homo sapiens) [compound 230] | ″+″ (≧10% = +)
92 (YLIPFTGIVGL; listed as Homo sapiens) [compound 92] | ″++″ (≧20% = ++)
221 (ALYEEGLLL; listed as Homo sapiens) [compound 221] | ″++″ (≧20% = ++)
239 (AAFAGKLLSV; listed as Homo sapiens) [compound 239] | ″+++″ (≧50% = +++)
300 (ALLGQTFSL; listed as Homo sapiens) [compound 300] | ″+++″ (≧50% = +++)
326 (FLPEALDFV; listed as Homo sapiens) [compound 326] | ″+++″ (≧50% = +++)
212 (ALWDQDNLSV; listed as Homo sapiens) [compound 212] | ″++″ (≧20% = ++)
187 (RQISIRGIVGV; listed as Homo sapiens) [compound 187] | ″+++″ (≧50% = +++)
33 (VLLSLLEKV; listed as Homo sapiens) [compound 33] | ″++″ (≧20% = ++)
32 (KLDDLTQDLTV; listed as Homo sapiens) [compound 32] | ″++″ (≧20% = ++)

Further lines, results first:

Peptide exchange | Substance
″+++″ (≧50% = +++) | 475 (LLLNEEALAQI; listed as Homo sapiens) [compound 475]
″++″ (≧20% = ++) | 579 (NLMEMVAQL; listed as Homo sapiens) [compound 579]
″+++″ (≧50% = +++) | 401 (ILLDDTGLAYI; listed as Homo sapiens) [compound 401]
″++″ (≧20% = ++) | 377 (FLLDSSASV; listed as Homo sapiens) [compound 377]
″++″ (≧20% = ++) | 375 (SLTETIEGV; listed as Homo sapiens) [compound 375]
″++″ (≧20% = ++) | 376 (AMFESSQNVLL; listed as Homo sapiens) [compound 376]
″++++″ (≧75% = ++++) | 576 (ILLNNSGQIKL; listed as Homo sapiens) [compound 576]
″++″ (≧20% = ++) | 455 (SLLKEPQKVQL; listed as Homo sapiens) [compound 455]
″++″ (≧20% = ++) | 494 (ALQPEPIKV; listed as Homo sapiens) [compound 494]
″++″ (≧20% = ++) | 392 (ALLHPQGFEV; listed as Homo sapiens) [compound 392]
″+++″ (≧50% = +++) | 616 (VLIDEVESL; listed as Homo sapiens) [compound 616]
″+++″ (≧50% = +++) | 614 (LLLPDQPPYHL; listed as Homo sapiens) [compound 614]
″+++″ (≧50% = +++) | 352 (SLLELLHIYV; listed as Homo sapiens) [compound 352]
″+++″ (≧50% = +++) | 464 (ALNDCIYSV; listed as Homo sapiens) [compound 464]
″++″ (≧20% = ++) | 570 (ALANQIPTV; listed as Homo sapiens) [compound 570]
″+++″ (≧50% = +++) | 541 (SMLEPVPEL; listed as Homo sapiens) [compound 541]
″++″ (≧20% = ++) | 453 (KLLEATSAV; listed as Homo sapiens) [compound 453]
″++″ (≧20% = ++) | 516 (AVGPASILKEV; listed as Homo sapiens) [compound 516]
″+++″ (≧50% = +++) | 569 (KLVDRTWTL; listed as Homo sapiens) [compound 569]

Peptide exchange | Substance
″++″ (≧20% = ++) | 355 (SIQQSIERLLV; listed as Homo sapiens) [compound 355]
″+++″ (≧50% = +++) | 450 (FMIDASVHPTL; listed as Homo sapiens) [compound 450]
″++″ (≧20% = ++) | 405 (ALYDVFLEV; listed as Homo sapiens) [compound 405]
″+++″ (≧50% = +++) | 439 (YLLQEIYGI; listed as Homo sapiens) [compound 439]
″++″ (≧20% = ++) | 400 (SLLTEQDLWTV; listed as Homo sapiens) [compound 400]
″++″ (≧20% = ++) | 574 (YLLQEPPRTV; listed as Homo sapiens) [compound 574]
″+++″ (≧50% = +++) | 598 (FLFPHSVLV; listed as Homo sapiens) [compound 598]
″++++″ (≧75% = ++++) | 348 (ILLDVKTRL; listed as Homo sapiens) [compound 348]
″+++″ (≧50% = +++) | 498 (KLWTGGLDNTV; listed as Homo sapiens) [compound 498]
″+++″ (≧50% = +++) | 591 (SMAELDIKL; listed as Homo sapiens) [compound 591]
″+++″ (≧50% = +++) | 364 (LLQNEQFEL; listed as Homo sapiens) [compound 364]
″++″ (≧20% = ++) | 580 (LLMENAERV; listed as Homo sapiens) [compound 580]
″+++″ (≧50% = +++) | 490 (FLLQHVQEL; listed as Homo sapiens) [compound 490]
″+++″ (≧50% = +++) | 525 (VLLEAGEGLVTI; listed as Homo sapiens) [compound 525]
″++++″ (≧75% = ++++) | 602 (YLLEQIKLIEV; listed as Homo sapiens) [compound 602]
″+++″ (≧50% = +++) | 396 (ALLPDLPAL; listed as Homo sapiens) [compound 396]
″++″ (≧20% = ++) | 434 (KVSNSGITRV; listed as Homo sapiens) [compound 434]
″+++″ (≧50% = +++) | 586 (KLKPGDLVGV; listed as Homo sapiens) [compound 586]

— patent US20170037111A1, “Novel peptides and combination of peptides for use in immunotherapy against ovarian cancer and other cancers” (immatics biotechnologies GmbH, priority 2015, published 2017)
